Laboratory results: patent US20150239980A1 (NEOTOPE BOSCIENCES, published 2015)

Tests used:
recombinant hMCAM-His [1] = molecular target: T1, recombinant hMCAM-His (human, UniProt P43121 24-559); experiment: ForteBio Octet Red, hMCAM-His analyte; Expt. #1; vs rodent 1749
T1 construct: not shown: His tag
T1 chain: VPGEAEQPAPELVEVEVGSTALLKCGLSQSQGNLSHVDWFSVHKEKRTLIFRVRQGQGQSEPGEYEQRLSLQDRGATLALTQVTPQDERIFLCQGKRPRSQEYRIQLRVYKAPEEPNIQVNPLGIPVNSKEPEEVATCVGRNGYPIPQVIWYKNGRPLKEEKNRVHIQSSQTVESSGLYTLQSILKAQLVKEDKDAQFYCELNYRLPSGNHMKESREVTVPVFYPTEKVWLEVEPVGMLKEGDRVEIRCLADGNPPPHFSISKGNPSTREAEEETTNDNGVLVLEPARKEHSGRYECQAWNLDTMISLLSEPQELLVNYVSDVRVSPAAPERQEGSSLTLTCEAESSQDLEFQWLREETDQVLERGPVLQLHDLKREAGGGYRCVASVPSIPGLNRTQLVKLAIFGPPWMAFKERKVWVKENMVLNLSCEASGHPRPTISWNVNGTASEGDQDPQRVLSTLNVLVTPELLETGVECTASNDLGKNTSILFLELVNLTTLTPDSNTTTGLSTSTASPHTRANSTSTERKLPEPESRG
Experimental: (§1) The affinities were measured using the ForteBio Octet Red. Anti-human Fc sensors were used to capture the humanized antibodies, and several concentrations of hMCAMHis analyte were used to determine the affinity using a 1:1 fitting model.

recombinant hMCAM-His [2] = molecular target: T1, recombinant hMCAM-His; experiment: ForteBio Octet Red, hMCAM-His analyte; Expt. #2; vs rodent 1749
Experimental: as §1

recombinant hMCAM-His [3] = molecular target: T1, recombinant hMCAM-His; experiment: ForteBio Octet Red, hMCAM-His analyte; Forte column 1; vs rodent 1749
Experimental: as §1

[4] = molecular target: T2, human MCAM (melanoma cell adhesion molecule) expressed on transfected CHO cells (human, UniProt P43121 24-646); experiment: laminin/FACS on hMCAM CHO cells, competitor laminin 411; Expt#1; vs rodent 1749
T2 construct: also called hMCAM; CD146
T2 chain: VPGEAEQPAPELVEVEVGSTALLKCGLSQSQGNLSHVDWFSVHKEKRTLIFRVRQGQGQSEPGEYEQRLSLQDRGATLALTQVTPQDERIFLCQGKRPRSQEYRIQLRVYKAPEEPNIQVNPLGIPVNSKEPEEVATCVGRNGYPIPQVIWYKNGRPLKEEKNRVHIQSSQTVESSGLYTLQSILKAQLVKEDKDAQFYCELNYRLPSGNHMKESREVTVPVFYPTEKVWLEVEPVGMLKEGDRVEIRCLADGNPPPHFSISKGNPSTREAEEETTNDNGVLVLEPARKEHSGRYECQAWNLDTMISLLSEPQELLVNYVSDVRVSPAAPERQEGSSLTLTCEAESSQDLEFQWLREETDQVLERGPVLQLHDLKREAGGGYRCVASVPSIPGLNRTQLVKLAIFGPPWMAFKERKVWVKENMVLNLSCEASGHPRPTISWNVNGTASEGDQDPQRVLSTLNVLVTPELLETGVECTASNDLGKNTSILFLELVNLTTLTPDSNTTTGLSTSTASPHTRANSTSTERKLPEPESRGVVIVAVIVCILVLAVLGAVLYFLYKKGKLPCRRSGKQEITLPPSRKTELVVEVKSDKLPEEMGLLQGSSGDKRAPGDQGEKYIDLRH
Experimental: Following incubation for 30-45 minutes, the cells were washed and anti-laminin conjugated to AF650 (NovusBio) was added to detect the bound laminin. The cells were run on a flow cytometer to measure the laminin binding signal.

recombinant hMCAM-His [5] = molecular target: T1, recombinant hMCAM-His; experiment: competitive ELISA on hMCAM-His, competitor biotinylated rodent or chimeric 1749; Expt. #1; vs rodent 1749
Experimental: (§2) ELISA plates were coated with recombinant hMCAM-His, and blocked with casein buffer to prevent non-specific binding. Biotinylated rodent or chimeric antibody was added at a subsaturating concentration, in the presence or absence of 3× increasing concentrations of unlabeled competitor (humanized antibody, rodent, or chimeric). After washing to remove unbound antibody, streptavidin HRP was added to allow detection of the biotinylated antibody. The ELISA was developed with TMB substrate and the OD450 was measured. The IC50 of the unlabeled competitor was determined using the GraphPad Prism5 software.

recombinant hMCAM-His [6] = molecular target: T1, recombinant hMCAM-His; experiment: competitive ELISA on hMCAM-His, competitor biotinylated rodent or chimeric 1749; Expt. #2; vs rodent 1749
Experimental: as §2

- fold over rodent (Forte affinity) (recombinant hMCAM-His [1]): 1 fold
- fold over rodent (Forte affinity) (recombinant hMCAM-His [2]): 1 fold
- fold over rodent (Forte affinity) (recombinant hMCAM-His [3]): 1 fold
- fold over rodent (blocking, laminin/FACS) [4]: 1 fold
- fold over rodent (competitive ELISA) (recombinant hMCAM-His [5]): 1 fold
- fold over rodent (competitive ELISA) (recombinant hMCAM-His [6]): 1 fold
B1: mouse anti-human MCAM monoclonal antibody clone 1749.1.3 (antibody, V domains shown)
VH: DVKLVESGGDLVKPGGSLKLSCAASGFTFSSYIMSWVRQTPEKRLEWVATISSGGSSTYYPDSVKGRFTISRDNAKNTLYLQMSSLKSEDTAMYYCTRDDDYDVKVFAYWGQGTLVTVSA
VL: DIVMSQSPSSLAVSAGEKVTMNCKSSRSLLNSRIRKNYLAWYQQKPGQSPKLLIYWASTRESGVPDRFTGSGSGTDFTLTISSVQAEDLAVYYCKQSYNLLTFGAGTKLELK
notes: mouse hybridoma antibody; also called rodent 1749; murine 1749.1.3 anti-MCAM antibody
